Laboratory results reported in patent publication US20230088269A1 (ARGENX BVBA, published 2023).
Numbering of substitutions follows the chain as printed. Each block holds one binder with its values, some of them ahead of it.

Tests used:
[1] = target: T1, recombinant human IL-22R (R&D Systems / Biotechne 2770-LR) (human, UniProt Q8N6P7 16-228); experiment: off-rate of Fab fragment; method not stated
T1 construct: Bought soluble recombinant protein (said to be 25 kDa); also called hIL22R; IL-22R1
T1 sequence: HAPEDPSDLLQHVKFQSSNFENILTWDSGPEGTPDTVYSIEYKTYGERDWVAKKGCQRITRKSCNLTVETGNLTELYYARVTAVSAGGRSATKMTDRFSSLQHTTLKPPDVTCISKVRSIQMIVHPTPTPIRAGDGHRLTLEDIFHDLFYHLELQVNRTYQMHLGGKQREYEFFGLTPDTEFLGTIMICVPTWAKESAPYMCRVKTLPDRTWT

[2] = target: T2, rhIL22R-Fc (rhesus IL22R ECD fused to human Fc) (rhesus monkey, UniProt G7MHN4 16-228); experiment: off-rate of Fab fragment; method not stated
T2 construct: also called rhesus IL-22R1
T2 sequence: T1 sequence with S18N, L73H, S99N, T105A, S115P, K167E, A194S, E196K, K205R

[3] = target: T1, recombinant human IL-22R (R&D Systems / …); experiment: SPR (Biacore 3000), IL22R on CM5 chip, IgG1 injected
Protocol: In addition to the potency on cells, the in vitro binding kinetics and blocking activity of the purified antibodies were measured in Biacore (3000). […] Antibodies tested at a range of concentrations and prepared in HBSEP buffer at pH 7.4 (Biacore) were injected at 30 μl/min for 60 second and washed with HBSEP buffer at pH 7.4 (Biacore) for 10-20 min. The obtained sensograms were analyzed with the BIAevaluation software and kinetics were determined using standard fitting (Langmuir 1:1 with mass transfer).

[4] = target: T3, recombinant mouse IL22R (monomeric, R&D Systems cat 4248-MR) (mouse, UniProt Q80XZ4 16-230); experiment: ELISA and SPR (Biacore), mAb
T3 construct: extracellular domain; also called murine IL-22R; mIL22R
T3 sequence (looked up): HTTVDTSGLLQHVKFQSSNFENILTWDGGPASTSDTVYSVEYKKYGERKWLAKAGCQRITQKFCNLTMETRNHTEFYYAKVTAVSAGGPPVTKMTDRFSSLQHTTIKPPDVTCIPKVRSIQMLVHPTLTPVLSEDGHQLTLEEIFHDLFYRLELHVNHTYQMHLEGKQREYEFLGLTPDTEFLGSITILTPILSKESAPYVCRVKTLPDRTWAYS
Protocol: After production and purification of the cyIL22R-Fc and the rhIL22R-Fc, the binding specificity to cynomolgus, rhesus and mouse IL22R ECD of all the antibodies from primary selection was tested in ELISA and by SPR (Biacore). Monomeric mouse IL22R was purchased from R&D Systems (cat 4248-MR).

[5] = target: T1, recombinant human IL-22R (R&D Systems / …); experiment: SPR (Biacore), purified Fab
[6] = target: T3, recombinant mouse IL22R (monomeric, R&D …); experiment: SPR (Biacore), purified Fab
[7] = target: T4, human IL-22R expressed on cells (BW-hIL22R, Baf3-hIL22R/IL20Rb, transfected HEK, primary human skin cells) (human, UniProt Q8N6P7 16-574); experiment: cell-based or functional assay
T4 sequence: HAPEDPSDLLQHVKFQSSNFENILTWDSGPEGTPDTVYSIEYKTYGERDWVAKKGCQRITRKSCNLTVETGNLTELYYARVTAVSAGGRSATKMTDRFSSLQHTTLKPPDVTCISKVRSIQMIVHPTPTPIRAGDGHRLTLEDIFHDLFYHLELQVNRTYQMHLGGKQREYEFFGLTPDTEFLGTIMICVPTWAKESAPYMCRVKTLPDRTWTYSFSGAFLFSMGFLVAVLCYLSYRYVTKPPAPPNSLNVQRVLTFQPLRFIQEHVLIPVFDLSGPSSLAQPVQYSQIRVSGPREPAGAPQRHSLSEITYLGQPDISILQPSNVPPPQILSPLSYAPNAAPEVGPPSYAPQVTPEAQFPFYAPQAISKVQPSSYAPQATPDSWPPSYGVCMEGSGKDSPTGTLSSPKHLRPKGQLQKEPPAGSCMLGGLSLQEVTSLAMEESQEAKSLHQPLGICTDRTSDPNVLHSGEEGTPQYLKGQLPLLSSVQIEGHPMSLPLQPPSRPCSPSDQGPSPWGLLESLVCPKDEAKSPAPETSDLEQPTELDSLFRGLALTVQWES

[8] = target: T4, human IL-22R expressed on cells …; experiment: cell-based or functional assay; remark: listed apart in the source
[9] = target: rhesus IL22R ECD - human TM - human ICD chimera on transfected HEK cells (rhesus monkey; human, UniProt Q8N6P7 229-574); experiment: cell-based or functional assay
[10] = target: cynoIL22R_ECD-humanTM_humanICD chimera on transfected cells (cynomolgus monkey; human, UniProt Q8N6P7 229-574); experiment: cell-based or functional assay
[11] = target: T1, recombinant human IL-22R (R&D Systems / …); experiment: SPR (Biacore), hIL22R on CM5 chip, mAb injected, 1:1 Langmuir
Protocol: The affinity of the 230C9 and 223G5 antibodies was measured using SPR ([…]). In brief, 250RU of human IL22R (Biotechne, 2770-LR) was coated onto a CM5 chip using standard methods (EDC coupling of IL22R at a concentration of 2 μg/ml in acetate buffer pH4.5). Then various concentrations of antibody were injected in HBSEP+ buffer (pH 7.4) for 2 minutes. The binding was monitored also during a 10 min washing (HBSEP+).

[12] = target: T4, human IL-22R expressed on cells …; experiment: cell-based or functional assay; remark: listed apart in the source

koff [1]: 0.000529 s⁻¹
koff [2]: 0.00584 s⁻¹
B1: 223G5 Fab (Fab, V domains shown)
VH: QVQLVESGGGLVQPGGSLRLSCAASGFTFSSYFMSWVRQAPGKGPEWVSGIHISGGITYYTDSVKGRFTISRDNAKNTLYLQMNSLRAEDTAVYYCVTPPGPFKAHYNGAKYWGKGTLVTVSS
VL: QSALTQPPSVSGSPGQSVTISCTGTSSDIGSYNYVSWYQQLPGKAPKLLIYEVNKRSSGVPDRFSGSKSGNTASLTISGLQAEDEADYYCASYRLYADYVFGGGTQLTVL
notes: Germlined variant of 166G8

Kd [3]: 0.022 nM
koff [3]: 0.0002 s⁻¹
kon [3]: 9.2e+06 M⁻¹ s⁻¹
binding result [4]: no binding
B2: 166G8 mAb (antibody, IgG1, V domains shown)
VH: B1 VH with G16D, S30G, T61L, S85N, R87K, A88P, A110M
VL: NFMLTQPPSVSGTLGKTVTISCTGTSRDIGDYNYVSWYQQLPGLAPKLLIYKVNTRSSGTPDRFSGSKSGNTASLTISGLQSEDEADYYCASYRLYADYVFGGGTHLTVL
notes: VH family 5; produced as IgG1 with human constant domains

Kd [3]: 0.12 nM
koff [3]: 9.3e-05 s⁻¹
kon [3]: 760000 M⁻¹ s⁻¹
B3: 170B2 mAb (antibody, V domains shown)
VH: EVQLVESGGGLVQPGGSLRLSCAASGFTFSSSWMYWVRQAPGKGLEFVSVINTRSGITHYVESVKGRFTISTDNAKNTLFLQMNSLKSEDTAVYYCATRIQGLIDYWGQGTQVTVSS
VL: DIVMTQSPSSLSVSLGDRVTITCQASQSIGSVNALAWYQQKPGQSLKLLIHGASRLQTGVPSRFSGSGSGTSFTLAISGVEAEDLATYYCLQDYAWPLTFGQGTKVELK

koff [5]: 0.0037 s⁻¹
binding result [6]: no binding
B4: 157A2 Fab (Fab, V domains shown)
VH: QVQLVESGGGLVQPGGSLRLSCAASGFTFSSYDMSWVRQAPGKGLEWVSSIYNDGSNTAYSDSVKGRFTISRDNAKNTLYLQMNSLKSEDTAVYYCAKVGFSGTYYSESWGQGTQVTVSS
VL: NFMLTQPSAVSVSLGQTAKITCQGGYYAHWYQQKPGQAPVLVIYGNNNRPSGIPERFSGSSSGNTATLTISGAQAEDEAEYYCQSGSSSANAVFGGGTHLTVL
notes: VH family 4; purified llama Fab

koff [1]: 0.000352 s⁻¹
koff [2]: 0.000436 s⁻¹
B5: 230C9 Fab (Fab, V domains shown)
VH: B4 VH with S35N, G55A, A75S, K87R, S88A, Q115L
VL: SYELTQPSSVSVALGQTARITCQGGYYAHWYQQKPGQAPVLVIYGQNNRPSGIPERFSGSGAGNTATLTISRAQAEDEADYYCQSGSSSSNAVFGGGTKLTVL
notes: Germlined variant of 218A7

koff [1]: 0.00081 s⁻¹
koff [2]: 0.00097 s⁻¹
B6: 218A7 Fab (Fab, V domains shown)
VH: B4 VH
VL: B4 VL with N1L, F2P, M3V, K19R, N46Q, S61G, S62A, H99K
notes: Light chain shuffled variant of 157A2

Kd [3]: 2.8 nM
koff [3]: 0.0011 s⁻¹
kon [3]: 390000 M⁻¹ s⁻¹
binding result [4]: no binding
B7: 157A2 mAb (antibody, IgG1, V domains shown)
VH: B4 VH
VL: B4 VL
notes: VH family 4; produced as IgG1 with human constant domains

IC50 blocking IL-20 (nM), Baf3hIL22R/IL20Rb cell line [7]: 1.49 nM
Kd [3]: 0.24 nM
koff [3]: 6.4e-05 s⁻¹
kon [3]: 270000 M⁻¹ s⁻¹
EC50 (nM), STAT3-reporter in HEK cells after human IL22, Human ECD [8]: 0.26 nM
EC50 (nM), STAT3-reporter in HEK cells after human IL22, Rhesus ECD [9]: 0.43 nM
EC50 (nM), STAT3-reporter in HEK cells after human IL22, Cyno ECD [10]: 0.16 nM
Kd [11]: 0.69 nM
koff [11]: 0.00034 s⁻¹
kon [11]: 490000 M⁻¹ s⁻¹
IC50 blocking IL-22 (nM), BWhIL22R cell line [12]: 0.69 nM
Relative potency to 280.346.TSY (IL-22, BWhIL22R cell line) [12]: 1 fold
B8: 280.346.TSY (benchmark humanised IL-22R antibody of WO2011/061119) (antibody, V domains shown)
VH: EVQLVESGGGLVQPGGSLRLSCAASGYSITAEYMNWVRQAPGKGLEWIGEINPSTGTTTYNQKFKGRFTISVDQSKNTAYLQMNSLRAEDTAVYYCARFDAYFDYWGQGTLVTVSS
VL: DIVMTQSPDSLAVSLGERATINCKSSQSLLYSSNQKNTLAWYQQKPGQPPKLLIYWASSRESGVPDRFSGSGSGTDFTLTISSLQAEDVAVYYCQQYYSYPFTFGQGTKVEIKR
